Assay results: patent publication WO2019096294A1

Target: His-tagged human prothrombin (human) (UniProt P00734)
Test: binding ELISA; His-tagged human prothrombin coated on plate

With Ichorcumab (antibody) as the substance, how does the EC50 read?
Its EC50 is 0.282 µg/mL.
